# Source: patent publication CN117088968A (DONGGUAN PENGZHI BIOTECHNOLOGY CO LTD, dated 2023)
# B1: 抗新型冠状病毒的IgG抗体9B54 (antibody)
# heavy: EVLLQQSGPELVNPGASVKIPCKASGYTFTDYNMGWVKQSHGKSLEWIGAIIPNNGGTIYNQKFKGKATLTVDESSSTAYMELRSLTSEDTAVYYCAREAYRDYDVKTWFAYWGQGTLVTVSAAKTTPPSVYPLAPGSAAQTNSMVTLGCLVKGYFPEPVTVTWNSGSLSSGVHTFPAVLQSDLYTLSSSVTVPSSTWPSETVTCNVAHPASSTKVDKKIVPRDCGCKPCICTVPEVSSVFIFPPKPKDVLTITLTPKVTCVVVDISKDDPEVQFSWFVDDVEVHTAQTQPREEQFNSTFRSVSELPIMHQDWLNGKEFKCRVNSAAFPAPIEKTISKTKGRPKAPQVYTIPPPKEQMAKDKVSLTCMITDFFPEDITVEWQWNGQPAENYKNTQPIMDTDGSYFVYSKLNVQKSNWEAGNTFTCSVLHEGLHNHHTEKSLSHSPGK
# light: DLQMTQTTSSLSASLGDRVTISCSASQGIRNYLNWYQQKPDGTVKLLIYYTSTLHSGVPSRFSGSGSGTDYSLTISNLEPEDIATYFCQQYSKFPYTFGGGTKLEIKRADAAPTVSIFPPSSEQLTSGGASVVCFLNNFYPKDINVKWKIDGSERQNGVLNSWTDQDSKDSTYSMSSTLTLTKDEYERHNSYTCEATHKTSTSPIVKSFNRNEC
# B2: 抗新型冠状病毒的类IgM抗体8C21 (antibody)
# heavy: EVLLQQSGPELVNPGASVKIPCKASGYTFTDYNMGWVKQSHGKSLEWIGAIIPNNGGTIYNQKFKGKATLTVDESSSTAYMELRSLTSEDTAVYYCAREAYRDYDVKTWFAYWGQGTLVTVSAAKTTPPSVYPLAPGSAAQTNSMVTLGCLVKGYFPEPVTVTWNSGSLSSGVHTFPAVLQSDLYTLSSSVTVPSSTWPSETVTCNVAHPASSTKVDKKIVPRDCPAVAEMNPNVNVFVPPRDGFSGPAPRKSKLICEATNFTPKPITVSWLKDGKLVESGFTTDPVTIENKGSTPQTYKVISTLTISEIDWLNLNVYTCRVDHRGLTFLKNVSSTCAASPSTDILTFTIPPSFADIFLSKSANLTCLVSNLATYETLNISWASQSGEPLETKIKIMESHPNGTFSAKGVASVCVEDWNNRKEFVCTVTHRDLPSPQKKFISKPNEVHKHPPAVYLLPPAREQLNLRESATVTCLVKGFSPADISVQWLQRGQLLPQEKYVTSAPMPEPGAPGFYFTHSILTVTEEEWNSGETYTCVVGHEALPHLVTERTVDKSTGKPTLYNVSLIMSDTGGTCY
# light: B1 light
# notes: IgM-like antibody made by replacing part of the constant region of 9B54 with that of IgM
# Columns and labels:
# 2019-nCoV N蛋白抗原 [1] = biological target: T1, 2019-nCoV N蛋白抗原 (2019-nCoV (新型冠状病毒), UniProt P0DTC9 1-419); test: AMC sensor, antibody captured at 10 μg/mL, N protein antigen in serial dilution in PBST
# T1 construct: also called 新型冠状病毒N蛋白; 核衣壳蛋白(N蛋白)
# 2019-nCoV N蛋白抗原 [2] = biological target: T1, 2019-nCoV N蛋白抗原
Binder,Kd (2019-nCoV N蛋白抗原 [1]) [nM],koff (2019-nCoV N蛋白抗原 [1]) [s⁻¹],kon (2019-nCoV N蛋白抗原 [1]) [M⁻¹ s⁻¹],OD450 (ref. 630 nm) of cell supernatant diluted 1000-fold (2019-nCoV N蛋白抗原 [2])
B1,0.102,0.000113,1.11e+06,> 1
B2,0.031,6.56e-05,2.11e+06,
